# Article PMC9129923
# Target: microtubules grown from porcine brain tubulin (porcine) (UniProt P02550)
# Test: TIRF microscopy of fluorescent proteins on dynamic microtubules in vitro
"MT binding at 10 nM, percent of γ-TuRC^StN/CDK1/PLK1 [%]","MT binding at 50 nM, percent of γ-TuRC^StN/CDK1/PLK1 [%]",fold intensity along MTs over NEDD1^CDK1/PLK1 [fold],Substance
21,13,–,"γ-TuRC^ΔWD/StN/CDK1/PLK1-GFP (γ-TuRC purified by Strep-NEDD1 ΔWD, GCP3-GFP) (from UniProt P23258;Q9BSJ2-1;Q96CW5-1;Q9UGJ1-2;Q96RT8-1;Q96RT7-1;Q08AG7;Q6P582;Q6NZ67;Q9Y5B8-1) (complex)"
–,–,20,"augmin^CDK1/PLK1-GFP, Q96CS2-1;Q9NVX0-1;Q68CZ6-1;Q9H6D7-1;O94927-1;Q7Z4H7-1;Q99871-1;Q9BT25-1"
